From the supplement of paper PMC10567573

B1: GMCL1 (parent)
chain: RPDTGDDAAGHGFCYCAGSHKRKR
B2: CDKN1A (parent)
chain: RRQTSMTDFYHSKRRLIFSKRKP

Variants of: B1
Assay: protein stability index of a GFP-peptide fusion (GPS, HEK-293T) (PSI 1-6); higher = more stable
Conditions: c terminus: a fixed tail appended
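Note: lentivirally expressed fusions sorted by FACS into six bins by GFP to DsRed ratio, PSI derived from sequencing read proportions per bin multiplied by bin number.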

Protein stability index: each site, then its substitutions
A8: D 2.97; E 3.26; F 2.61; G 3.11; H 3.61; I 3.06; K 2.94; L 2.36; M 2.85; N 2.96; P 3.09; Q 3.16; R 3.08; S 3.72; T 2.73; V 3.18; W 3.38; Y 2.61
A9: C 3.89; D 3.81; E 3.05; F 2.72; G 3.43; H 2.48; I 2.65; K 3.07; L 2.71; M 2.96; N 3.52; P 3.01; Q 3.06; R 3.46; S 2.7; T 3.55; V 2.96; W 2.96; Y 3.05
G10: A 2.86; C 2.78; D 3.37; E 3.14; F 2.9; H 3.1; I 2.71; K 3.22; L 2.36; M 3.2; N 3.71; P 2.73; Q 3.36; R 2.81; S 2.95; T 3.18; V 3.49; W 2.84; Y 2.91
H11: A 3.64; C 2.47; D 3.45; E 3.49; F 3.27; G 3.18; I 3.26; K 3.16; L 3.14; M 3.15; N 2.32; P 3.21; Q 3.22; R 3.43; S 3.24; T 4.18; V 2.75; W 2.95; Y 2.84
G12: A 2.52; C 2.45; D 3.14; E 2.9; F 3.02; H 3.05; I 3.02; K 3.21; L 2.38; M 2.79; N 3.14; P 3.1; Q 3.16; R 3.11; S 2.88; T 3.62; V 3.73; W 2.36; Y 2.71
F13: A 3.12; C 2.19; D 3.82; E 3.99; G 3.69; H 3.86; I 3.02; K 3.35; L 2.87; M 3.25; N 3.4; P 3.55; Q 3.9; R 2.94; S 2.84; T 3.34; V 3.55; W 3.45; Y 2.65
C14: A 4.73; D 4.75; E 4.99; F 3.88; G 4.85; H 4.7; I 4.3; K 4.98; L 3.66; M 4.9; N 4.62; P 4.31; Q 4.7; R 4.87; S 5.02; T 4.89; V 4.3; W 3.82; Y 4.88
Y15: A 3.12; C 2.68; D 3.36; E 2.77; F 2.6; G 3.35; H 2.98; I 3.09; K 2.5; L 2.84; M 2.89; N 2.43; P 3.36; Q 2.74; R 3.41; S 2.77; T 2.51; V 2.8; W 2.82
C16: A 4.94; D 5.04; E 5.33; F 4.72; G 4.85; H 3.87; I 4.57; K 4.81; L 4.11; M 4.17; N 4.56; P 4.71; Q 4.92; R 4.59; S 4.97; T 4.74; V 4.72; W 4.36; Y 4.09
A17: C 2.05; D 3.68; E 3.61; F 2.2; G 2.9; H 2.29; I 2.97; K 2.82; L 2.59; M 2.99; N 3.61; P 3.7; Q 3.02; R 2.9; S 2.77; T 3.13; V 2.56; W 3.01; Y 3.25
G18: A 3.24; C 2.77; D 2.84; E 3.6; F 2.7; H 2.53; I 2.9; K 3.58; L 2.66; M 2.71; N 2.85; P 3.53; Q 3.12; R 3.29; S 3.36; T 3.53; V 2.75; W 2.09; Y 2.98
S19: A 3.62; C 3.82; D 2.86; E 2.98; F 2.63; G 3.14; H 2.77; I 2.96; K 3.78; L 2.82; M 2.52; N 3.31; P 2.45; Q 3.16; R 3.26; T 3.65; V 2.72; W 2.45; Y 2.53
H20: A 3.15; C 3.26; D 3.35; E 3.3; F 3.24; G 3.41; I 3.9; K 4.09; L 3.18; M 3.03; N 3.04; P 2.85; Q 3.59; R 3.31; S 3.95; T 3.05; V 2.79; W 2.62; Y 3.12
K21: A 3.07; C 3.23; D 3.15; E 2.57; F 2.52; G 2.39; H 2.35; I 2.01; L 2.69; M 2.65; N 2.83; P 3.03; Q 2.79; R 2.67; S 2.34; T 2.74; V 2.79; W 2.29; Y 2.11
R22: A 2.76; C 3.59; D 3.55; E 3.56; F 1.96; G 2.43; H 2.56; I 3; K 3.08; L 2.57; M 2.12; N 2.62; P 2.79; Q 2.66; S 2.77; T 2.64; V 2.65; W 2.6; Y 2.01
K23: A 2.2; C 3.71; D 3.33; E 2.94; F 1.9; G 2.9; H 3.1; I 3.04; L 2.16; M 2.32; N 3.03; P 2.84; Q 2.92; R 2.37; S 3.12; T 2.18; V 2.33; W 1.95; Y 2.22
R24: A 3.53; C 4.32; D 4.3; E 3.64; F 3.18; G 3.4; H 4.13; I 3.33; K 3.65; L 2.66; M 2.77; N 3.84; P 3.94; Q 3.35; S 3.47; T 3.04; V 3.38; W 2.87; Y 3.75

Variants of: B2
Assay: as above
Conditions: c terminus: native

Protein stability index, by site and new letter:
T4: R 1.8
K13: Q 1.8
K22: D 1.85
D8: S 2.95
R1: A 1.71
H11: A 2.49
S19: Y 2.84; L 2.33
K20: V 2.1
T7: Q 2.1
I17: E 3.68
F9: K 2.4
